Data from US20250313626A1 (HARBOUR BIOMED SHANGHAI, published 2025).
Like-named read-outs stand apart in the source and are kept apart here.

Key:
[1] = molecular target: T1, human CD200R1 isoform a on CHOK1 cells (CHOK1/hCD200R1a) (human, UniProt Q8TD46 25-348); assay: flow cytometry, Alexa Fluor 647-labelled antibody on CHOK1/hCD200R1a cells
T1 construct: also called CHOK1/CD200R1a
T1 sequence: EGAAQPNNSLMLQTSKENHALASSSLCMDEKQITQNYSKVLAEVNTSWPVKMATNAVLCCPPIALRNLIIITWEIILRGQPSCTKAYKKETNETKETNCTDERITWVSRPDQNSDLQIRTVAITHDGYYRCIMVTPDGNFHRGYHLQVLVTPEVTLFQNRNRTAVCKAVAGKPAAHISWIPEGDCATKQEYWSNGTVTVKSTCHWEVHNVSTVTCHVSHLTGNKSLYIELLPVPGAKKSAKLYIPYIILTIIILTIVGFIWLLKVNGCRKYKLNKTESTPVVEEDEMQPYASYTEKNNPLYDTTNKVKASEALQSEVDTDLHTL
Description: Briefly, CHOK1/hCD200R1a cells and CHOK1-cynoCD200R1a cells were digested, and collected, and then were resuspended in PBS containing 2% BSA, respectively. The cell density was adjusted to 1×10⁶ cells/mL. The cells were seeded in a 96-well V-bottom plate (Corning, #3894) at 100 μL/well, followed by the addition of test antibodies and reference antibodies in a series diluted concentration, each at 100 μL/well. The cells were incubated away from light at 4° C. for 1 h. Thereafter, the cells in each well were rinsed twice with 100 μL of pre-cooled PBS containing 2% BSA, and centrifuged at 500 g at 4° C. for 5 min, and then the supernatant was discarded. […] The cells in each well were rinsed twice with 100 μL of pre-cooled PBS containing 2% BSA, and centrifuged at 500 g at 4° C. for 5 min, and then the supernatant was discarded. Finally, the cells in each well were resuspended in 200 μL of pre-cooled PBS containing 2% BSA, and the fluorescence signal values were read using a BD CantoII flow cytometer.
The cell density was adjusted to 1×10⁶ cells/mL.

[2] = molecular target: T2, CD200 (human CD200 on CHOK1/hCD200 cells); assay: cell-based or functional assay
T2 single chain: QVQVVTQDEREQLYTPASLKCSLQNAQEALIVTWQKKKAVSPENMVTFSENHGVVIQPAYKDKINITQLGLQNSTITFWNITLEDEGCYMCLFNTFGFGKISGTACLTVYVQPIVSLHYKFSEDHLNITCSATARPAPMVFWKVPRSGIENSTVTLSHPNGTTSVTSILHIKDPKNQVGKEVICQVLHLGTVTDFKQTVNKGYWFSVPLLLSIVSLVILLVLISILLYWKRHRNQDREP

[3] = molecular target: T2, CD200 (human CD200 on CHOK1/hCD200 …); assay: cell-based or functional assay
[4] = molecular target: T2, CD200 (human CD200 on CHOK1/hCD200 …); assay: cell-based or functional assay
[5] = molecular target: T2, CD200 (human CD200 on CHOK1/hCD200 …); assay: cell-based or functional assay
[6] = molecular target: T2, CD200 (human CD200 on CHOK1/hCD200 …); assay: cell-based or functional assay
[7] = molecular target: T1, human CD200R1 isoform a on CHOK1 cells …; assay: flow cytometry on CHOK1/hCD200R1a cells
Description: (§1) This example is intended to investigate the in vitro binding activity of human anti-CD200R1 monoclonal antibodies to human/Cynomolgus macaques CD200R1a expressed on the surface of cells. The anti-CD200R1 antibodies were produced as described in Example 3.4 and the binding experiments at the cell level were performed using CHOK1/hCD200R1a and CHOK1-cynoCD200R1a.
(§2) Briefly, CHOK1/hCD200R1a cells and CHOK1-cynoCD200R1a cells were digested, and collected, and then were resuspended in PBS containing 2% BSA, respectively. The cell density was adjusted to 1×10⁶ cells/mL. The cells were seeded in a 96-well V-bottom plate (Corning, #3894) at 100 μL/well, followed by the addition of test antibodies and reference antibodies in a series diluted concentration, each at 100 μL/well. The cells were incubated away from light at 4° C. for 1 h. Thereafter, the cells in each well were rinsed twice with 100 μL of pre-cooled PBS containing 2% BSA, and centrifuged at 500 g at 4° C. for 5 min, and then the supernatant was discarded. […] Finally, the cells in each well were resuspended in 200 μL of pre-cooled PBS containing 2% BSA, and the fluorescence signal values were read using a BD CantoII flow cytometer.

[8] = molecular target: T3, Cynomolgus macaques CD200R1 isoform a on CHOK1 cells (CHOK1/cynoCD200R1a) (Cynomolgus macaques); assay: flow cytometry on CHOK1/cynoCD200R1a cells
T3 chain: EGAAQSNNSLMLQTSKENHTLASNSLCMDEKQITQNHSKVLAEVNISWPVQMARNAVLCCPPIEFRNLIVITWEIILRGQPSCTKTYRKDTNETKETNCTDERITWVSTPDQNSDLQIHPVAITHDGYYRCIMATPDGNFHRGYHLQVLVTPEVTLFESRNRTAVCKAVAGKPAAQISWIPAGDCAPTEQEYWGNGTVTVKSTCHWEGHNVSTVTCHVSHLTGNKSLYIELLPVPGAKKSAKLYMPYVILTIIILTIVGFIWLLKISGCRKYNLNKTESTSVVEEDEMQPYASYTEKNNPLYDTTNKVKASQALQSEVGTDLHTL
Description: as §1, §2

B1: PR200691 (antibody, human IgG4 S228P, kappa, F234A L235A, V domains shown)
VH: QVQLVESGGGVVQPGRSLRLSCAASGFTFSRYGMHWVRQAPGKGLEWVAVIPYDGSNKYYADSVKGRFTISRDISKNTLYLQMNSLRAEDTAVYYCARRGYYDSSGYYYFYYGMDVWGQGTTVTVSS
VL: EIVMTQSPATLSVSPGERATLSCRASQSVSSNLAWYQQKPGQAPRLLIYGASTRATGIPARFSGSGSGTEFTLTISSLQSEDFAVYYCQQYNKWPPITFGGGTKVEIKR
B1: binds [1].

B2: PR002903 (antibody, human IgG2, kappa, V domains shown)
VH: QVQLQQSGSELKKPGASVKISCKASGYSFTDYIILWVRQNPGKGLEWIGHIDPYYGSSNYNLKFKGRVTITADQSTTTAYMELSSLRSEDTAVYYCGRSKRDYFDYWGQGTTLTVSS
VL: DIQMTQSPSSLSASIGDRVTITCKASQDINSYLSWFQQKPGKAPKLLIYRANRLVDGVPSRFSGSGSGTDYTLTISSLQPEDFAVYYCLQYDEFPYTFGGGTKLEIKR
In the case of B2, the “IC50 of the inhibition of CD200-induced PathHunter Jurkat CD200R1a luminescence (CHOK1/hCD200 cells as CD200 source)” value [2] is reported as 3.4 nM, the “IC50 of the inhibition of CD200-induced PathHunter Jurkat CD200R1a luminescence (CHOK1/hCD200 cells as CD200 source)” value [3] is reported as 2.4 nM and the “IC50 of the inhibition of CD200-induced PathHunter Jurkat CD200R1a luminescence (CHOK1/hCD200 cells as CD200 source); head without unit, x axis Log [Ab] (nM)” value [4] is reported as 4.18 nM. The “IC50 of the inhibition of CD200-induced PathHunter Jurkat CD200R1a luminescence (CHOK1/hCD200 cells as CD200 source); head without unit, x axis Log [Ab] (nM)” value [5] was 11.9 nM and the “IC50 of the inhibition of CD200-induced PathHunter Jurkat CD200R1a luminescence (CHOK1/hCD200 cells as CD200 source)” value [6] was 4.01 nM.

B3: PR200526 (antibody, human IgG1, lambda, V domains shown)
VH: QVQLVQSGAEVKKPGQSLRISCKGAGYSFSTYWIGWVRQMPGKGLEWMGIIYPDDSDTRYSPSFEGQVTISVDKSITTAYLHWSSLKASDTAIYYCARLVGGAPAYWGQGTLVTVSS
VL: QSALTQPASVSGSPGQSITISCSGSSSDIGRYDYVSWYQHYPDKAPKLIIYEVKHRPSGISHRFSASKSGNTASLTISELQPGDEADYYCASYTESKTYIFGGGTKVTVLG
notes: also called IgG1; hIgG1
B3: no binding (tested: log 2.5 nM (about 300 nM)) [7]; no binding (tested: log 2.5 nM (about 300 nM)) [8].
